Target: ScNtx-NT647, fluorescently labeled variant of ScNtx
Test: MST; 5 nM ScNtx-NT647 held constant, Torpedo nAChR in asolectin-MSP1E3D1 nanodiscs titrated 0.5 nM to 1 μM; PBS pH 7.4, 0.05% Tween, 20 °C, high MST power, 4 % excitation power, triplicate; apparent affinity

In the case of “Torpedo muscle-type nicotinic acetylcholine receptor, native, purified, reconstituted in asolectin-MSP1E3D1 lipidic nanodiscs (from UniProt P02710 25-461; P02714 18-506; P02718 22-522; P02712 25-493) (complex)”, the Kd is reported as 28 nM.
